Residue numbers refer to the chain shown, from its start.

Experiment [1] deals with T1, OX40 (antigen of the competitive ELISA of Example 5) (UniProt P43489 29-214).
T1 sequence (looked up): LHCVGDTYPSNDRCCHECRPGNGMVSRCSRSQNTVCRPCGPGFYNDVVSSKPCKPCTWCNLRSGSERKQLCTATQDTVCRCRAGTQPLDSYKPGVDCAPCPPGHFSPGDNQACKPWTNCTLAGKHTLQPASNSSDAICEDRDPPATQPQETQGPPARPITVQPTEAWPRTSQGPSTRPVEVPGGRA
Description: competitive ELISA; competitor PF-04518600.

Experiment [2] concerns the target T1, OX40 (antigen of the competitive ELISA …). Description: competitive ELISA; competitor MOXR0916. On the technique in general: ELISA stands for enzyme-linked immunosorbent assay.
Experiment [3] shares this target. In words: competitive ELISA; competitor MEDI0562.
For experiment [4] the target is unchanged. In words: competitive ELISA; competitor BMS-986178.
Experiment [5] addresses T2, human-derived OX40, full-length, on cells (human, UniProt P43489 29-277).
T2 construct: whole, on cells; also called hOX40; CHOK1-hOX40
T2 sequence (looked up): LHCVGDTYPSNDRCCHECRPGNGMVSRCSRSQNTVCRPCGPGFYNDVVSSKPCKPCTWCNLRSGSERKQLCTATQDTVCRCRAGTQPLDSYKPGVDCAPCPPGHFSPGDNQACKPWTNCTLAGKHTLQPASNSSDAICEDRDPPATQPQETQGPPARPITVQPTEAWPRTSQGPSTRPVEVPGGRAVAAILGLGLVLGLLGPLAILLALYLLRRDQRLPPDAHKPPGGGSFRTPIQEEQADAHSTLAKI
In words: FACS on cells expressing human OX40 (CHOK1-hOX40).

B1: MAb058 (antibody, IgG1, V domains shown)
VH: EVQLQQSGPVLVKPGAAVKMSCKASGYIFTDYYIHWVKLSRGESLEWIGLINPYNGGTNYNQQFTGKATLTVDKSSSTAYVELNSLTSGDSAVYYCVRRTGYFDYWGQGTTLTVSS
VL: DVVMTQTPLSLPVSLGDQASISCRSSQSLVHSNGNTYLHWYLQKPGQSPKLLIYKVSNRFSGVPDRFSGSGSGTDFTLKISRVEAEDLGVYFCSQTTHVPYTFGGGTKLEIK
Turning to B1, the percentage of competition in experiment [1] is 11%; in experiment [2], -3%; in experiment [3], 26%; in experiment [4], -4%.

B2: MAb049 (antibody, IgG1, V domains shown)
VH: EVQLQQSGPELVKPGASVKISCKASGHTLTDYYMNWVKQSHGKSPEWIGDINPNNDGIDYNQKFRGKAILTVDKSSSSFYMELRSLTSEDSAVYYCVGFVRGYFVSWGQGTTLTVSS
VL: DIQMTQTTSSLSASLGDRVTINCRASQDISNYLNWYQQKPDGTVKLLIYYTSRLRSGVPSRFSGSGSGTDYSLTINNLDQEDFATYFCQQGNTLPWTFGGGTKLEI
Turning to B2, the percentage of competition is -2% in experiment [1], 90% in experiment [2], 97% in experiment [3] and 0% in experiment [4].

B3: MAb033 (antibody, IgG1, V domains shown)
VH: QVQLQQSGAELVRPGTAVRVSCKASGYAFTNYFIEWVKQRPGQGLEWIGVINPGSGDTYYSEKFQGKATLTADKSSSTAYMQLSSLTSEDSAVYFCAREDDYSWFTYWGQGTLVTVSA
VL: DIVLTQSPASLAVSLGQRATISCRASENVDNYGISFMHWYRQKPGQPPKLLIYRASNLESGIPARFSGSGSRTDFTLTINPVETDDVATYYCQQSNKDPYTFGGGTKLEIK
As to B3, the percentage of competition was -7% in experiment [1], -1% in experiment [2], 7% in experiment [3] and 81% in experiment [4].

B4: MAb064 (antibody, IgG2c, V domains shown)
VH: QVQLKESGPGLVAPSQTLSITCSVSGFSLTNYAVSWVRQPPGKGLEWLGVMWGDGNTNYHSTLISRLSISKDNSKSQVFLKLNSLQTDDTATYYCARSSGWYFDVWGTGTTVTVSS
VL: DIQMTQTTPSLSVTLGDRVTIRCRASQDINNYLNWYQQKPDGTVKLLIYYTSESRSGVPSRFSGSGSGTDYSLTISNLEQEDIATYFCQQGYALPPAFGGGTKLEIK
For the molecule B4, the percentage of competition in experiment [1] worked out at 4%; in experiment [2], 90%; in experiment [3], 96%; in experiment [4] it was 1%.

B5: MAb053 (antibody, IgG2c, V domains shown)
VH: QVQLKQSGPGLVQPSQSLSIICTVSGFSLSDYGVMWVRQSPGKGLEWLGVIWSGGSTDYNAAFTSRLSISRDNSKRQVIFKMNSLQAEDTAIHYCVRETMDYWGQGTSVTVS
VL: DIQMTQTTSSLSASLGDRVTISCRASQDISNYLNWYQQRPDGTVKRLIYYTSRLHSGVPSRFSGSGSGTDYSLTISSLEQEDIATYFCQQAHTLPWTFGGGTKLEIK
With B5, the percentage of competition in experiment [1] is 93%; in experiment [2], -2%; in experiment [3] it was 11%; in experiment [4], 2%.

B6: MAb055 (antibody, IgG1, V domains shown)
VH: QVQLKQSGPGLLQPSQSLSITCTVSGFSLDEYGVHWFRQSPGKGLEWLGVIWSGGSTDYNAAFISRLSIRKDNSKSQIFFNMNSLQADDTAIYYCVREEWEYWGQGTTLTVS
VL: B5 VL with A25P, S30D, Y36F, V44I, R46L, S76N, S77N, W96Y
With B6, the percentage of competition is 95% in experiment [1], -3% in experiment [2], 16% in experiment [3] and 3% in experiment [4].

B7: MAb035 (antibody, IgG1, V domains shown)
VH: QVQLQQSGAELVRPGASVTLSCKASDYTFTDYEMHWVYQTPVHGLEWIGAIDPETGGTAYNQKFKDKAILTADKSSNTAYMELRSLTSEDSAVYFCTKTGYQFDYWGQGTTLTVSS
VL: DIVMTQSQKFMSTSVGDRVSVTCKASQNVGSNVAWYQQKPGQSPKALIYSASYRYSGVPDRFAGSGSGTDFTLTISNVQSEDLADYFCQQYNSHPYTFGGGTKLEIK
Turning to B7, the percentage of competition is -5% in experiment [1], 3% in experiment [2], 59% in experiment [3] and 90% in experiment [4].

B8: Humab035-24 (antibody, V domains shown)
VH: QVQLVQSGAEVKKPGASVKVSCKASDYTFTDYEMHWVRQAPGQGLEWIGAIDPETGGTAYNQKFKDRVTMTADTSTSTVYMELSSLRSEDTAVYYCAKTGYQFDYWGQGTTVTVSS
VL: DIQMTQSPSSVSASVGDRVTITCKASQNVGSNVAWYQQKPGKAPKALIYSASYRYSGVPSRFSGSGSGTDFTLTISSLQPEDFATYYCQQYNSHPYTFGQGTKLEIK
Regarding B8, in experiment [5], the binding result is recorded as “binds”.

B9: MAb047 (antibody, IgG2c, V domains shown)
VH: EVQLVESGGGLVKPGGSLKLSCAASGFTFSDYGMYWIRQAPEKGLEWVAYISNGGSSIYYADTVKGRFTVSRDNAKNTLFLQMTSLRSEDTAIYYCARGGELGFAYWGQGTLVTVSA
VL: DIQMTQSPASLSVSVGETVTITCRASENIYSNLAWYQQKQGKSPQLLVYAAINLVEGVPSRFSGSGSGTQYSLKINSLQSEDFGSYFCQHFWGLPYTFGGGTKLE
Take B9: the percentage of competition in experiment [1] is -2%; in experiment [2], -3%; in experiment [3], 97%; in experiment [4] it was 0%.

B10: MAb034 (antibody, IgG1, V domains shown)
VH: EVQLQQSGPVLVKPGASVKMSCKASGYTFTDFYMNWMRQSHGKSLEWIGVIDPYNGNTSYNQKFKGKATLTVDKSSSTAYMELNSLTSEDSAVYYCARGNYYYYAMDYWGQGTSVTVSS
VL: DIVLTQSPASLAVSLGQRATISCRASESVSIHGTHLMYWYQQKPGQPPKLLIYAASNLESGVPARFSGSGSETDFTLNIHPVEEEDAATFFCQQSIEDPPTFGGGTKLEIK
B10: the percentage of competition in experiment [1] is 5%; in experiment [2], 0%; in experiment [3], 13%; in experiment [4] it was 93%.

B11: MAb041 (antibody, IgG1, V domains shown)
VH: EVQLVESGGGLVKPGGSLKLSCAVSGFTFSNSAMSWVRQTPEKRLEWVATITDGGDYTYYSDNVKGRFTISRDNAKNNLYLQMSHLKSEDTAMYYCVRGISYWGQGTLVTVS
VL: DIVLTQSPASLAVSLGQRATISCRASKSVSTSSDSYMHWYQQKPGQPPKLLIKYASNLESGVPVRFSGSGSGTDFTLNIHPVEEEDAATYYCQHSREFPWTFGGGTKLEIK
For B11, the percentage of competition in experiment [1] was -8%; in experiment [2], 1%; in experiment [3], 2%; in experiment [4] it was -6%.

The values above are taken from patent US20220017629A1 (SHANGHAI PHARMAEXPLORER, published 2022).
